Data from patent publication US12084487B2, “Nanoparticles having molecules that bind or block PD-L1 and uses in treating cancer” (Emory University, priority 2016, dated 2024).

Molecular target: T1, PD-L1 on tumor cell surfaces (mouse pancreatic cancer KC cells) (Mus musculus, UniProt Q9EP73)
T1 construct: endogenous in cells; host or cells: KC mouse pancreatic cancer cells (Pdx1-Cre; LSL-K-rasG12D derived)
Assay: Competition-binding assay of FITC labeled PD-1 peptides with anti-mouse PD-L1 antibody on KC cells
Settings: for fluorescence intensity on cells: FITC labeled peptide 2 μg/ml
Protocol: Two (2) μg of FITC labeled PD-1 peptides were mixed with 0, 5, 20 μg of anti-mouse PD-L1 antibody and then incubated with the KC cells for 2 hours. Unbound peptides and antibodies were washed off. Relative fluorescent intensities of KC cells were measured for each group.
Next, a competition-binding assay was performed to determine specificity of the PD-1 like peptides binding to PD-L1 on tumor cell surfaces. […] The peptides were then added to tissue culture plates with mouse pancreatic cancer KC cells.

T1 sequence (Q9EP73 19-290): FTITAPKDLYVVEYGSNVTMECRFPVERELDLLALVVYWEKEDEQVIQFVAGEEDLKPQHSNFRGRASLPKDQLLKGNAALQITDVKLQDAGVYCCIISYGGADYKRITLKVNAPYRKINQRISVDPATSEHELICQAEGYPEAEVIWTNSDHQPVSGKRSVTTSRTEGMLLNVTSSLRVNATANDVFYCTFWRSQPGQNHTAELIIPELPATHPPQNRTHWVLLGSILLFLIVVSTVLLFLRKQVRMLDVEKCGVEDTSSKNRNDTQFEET

Sequence: NWNRLSPSNQTEKQAAPHHHHCGAISLHPKAKIEE [PD-1 (Y)]
- binding to cells with anti-PD-L1 antibody added (20 μg/ml anti-PD-L1 antibody): reduced
- fluorescence intensity on cells: High levels of fluorescence intensity

Sequence: NWNRLSPSNQTEKQAACGAISLHPKAKIEESPGHHHH [PD-1(Lin)]
- fluorescence intensity on cells: High levels of fluorescence intensity
